We go through two molecules from patent publication US20040018191A1.

For test [1], the target named is soluble IGFR1 (sIGFR1), NSO-expressed recombinant protein encompassing the alpha-subunit and the extracellular domain of the beta-subunit of IGFR1 (human) (UniProt P08069). The experiment in a line: SPR (Biacore 3000), IGFR1 on CM-5 chip, 25° C.; 25° C.
Test [2] shares this target. The experiment in a line: SPR (Biacore 3000), IGFR1 on CM-5 chip, 37° C.; calculated from koff.
The target is the same in test [3]. The experiment in a line: isotype ELISA on coated soluble IGFR1, detected with HRP-anti-human IgG3.
Test [4] has the same target. The experiment in a line: isotype ELISA on coated soluble IGFR1, detected with HRP-anti-hu-gamma.
Test [5] shares this target. The experiment in a line: SPR (Biacore 3000), IGFR1 on CM-5 chip, 25° C.; calculated from koff.
Test [6] has the same target. The experiment in a line: isotype ELISA on coated soluble IGFR1, detected with HRP-anti-hu kappa.
Test [7] has the same target. The experiment in a line: SPR (Biacore 3000), IGFR1 on CM-5 chip, 37° C.
Test [8] has the same target. The experiment in a line: SPR (Biacore 3000), IGFR1 on CM-5 chip, 25° C.

B1: 15H12 fully human monoclonal anti-IGFR1 antibody (antibody, IgG3, V domains shown)
VH: EVQLVQSGGGLVHPGGSLRLSCAASGFTFSSFAMHWVRQAPGKGLEWISVIDTRGATYYADSVKGRFTISRDNAKNSLYLQMNSLRAEDMAVYYCARLGNFYYGMDVWGQGTTVTVSS
VL: EIVLTQVPDFQSVTPKEKVTITCRASQSIGSSLHWYQQKPDQSPKLLIKYASQSLSGVPSRFSGSGSGTDFTLTINSLEAEDAAAYYCHQSSRLPHTFGGGTKVEIKR
Take B1: the kon in test [1] came to 500000 M⁻¹ s⁻¹; in test [7], 720000 M⁻¹ s⁻¹. Also, the Half-life in test [2] is 4.8 h; in test [5], 8.6 h. For the same molecule, the ELISA signal (OD415 nm-490 nm) in test [3] was 0.813 OD; in test [4], 1.9 OD; in test [6], 1 OD. For the same molecule, the values for the koff in test [7] and in test [8] were 4.01e-05 s⁻¹ and 2.24e-05 s⁻¹, respectively.

B2: 19D12 fully human monoclonal anti-IGFR1 antibody (antibody, V domains shown)
VH: EVQLVQSGGGLVHPGGSLRLSCAASGFTFSSFAMHWVRQAPGKGLEWISVIDTRGATYYADSVKGRFTISRDNAKNSLYLQMNSLRAEDMAVYYCARLGNFYYGMDVWGQGTTVTVSS
VL: EIVLTQVPDFQSVTPKEKVTITCRASQSIGSSLHWYQQKPDQSPKLLIKYASQSLSGVPSRFSGSGSGTDFTLTINSLEAEDAAAYYCHQSSRLPHTFGGGTKVEIKR
Consider B2, for which the Half-life in test [2] was 3.91 h; in test [5], 7.27 h. Moreover, the koff worked out at 4.93e-05 s⁻¹ in test [7] and 2.65e-05 s⁻¹ in test [8]. Also, the results for the kon in test [7] and in test [8] were 680000 M⁻¹ s⁻¹ and 400000 M⁻¹ s⁻¹, respectively.
